Tests used:
[1] = molecular target: T1, Human TMPRSS2 expressed on cells (human, UniProt O15393 1-492)
T1 construct: also called TMPRSS2 expressing cells; Daudi-TMPRSS2 transfectant

[2] = molecular target: T2, Human TMPRSS2 recombinant protein, extracellular region (N-terminal His tag, C-terminal Strep-tag II) (human, UniProt O15393 106-492); test: SPR (BIACore)
T2 construct: also called Human TMPRSS2 recombinant proteins; extracellular region of human TMPRSS2
T2 sequence (O15393 other isoform, or with tags, fused parts or gaps limits assumed): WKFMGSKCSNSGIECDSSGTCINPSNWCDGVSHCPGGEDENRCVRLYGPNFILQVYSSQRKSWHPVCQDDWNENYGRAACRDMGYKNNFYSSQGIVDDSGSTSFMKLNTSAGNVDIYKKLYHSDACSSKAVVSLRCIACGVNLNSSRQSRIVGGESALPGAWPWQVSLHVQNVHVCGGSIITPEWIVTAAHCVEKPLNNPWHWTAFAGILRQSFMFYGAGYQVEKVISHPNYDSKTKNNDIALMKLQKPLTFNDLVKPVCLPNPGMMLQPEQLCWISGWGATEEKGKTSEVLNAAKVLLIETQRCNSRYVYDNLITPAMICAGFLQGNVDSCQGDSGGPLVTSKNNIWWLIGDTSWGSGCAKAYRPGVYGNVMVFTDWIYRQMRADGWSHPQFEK

T1 sequence (O15393 whole entry): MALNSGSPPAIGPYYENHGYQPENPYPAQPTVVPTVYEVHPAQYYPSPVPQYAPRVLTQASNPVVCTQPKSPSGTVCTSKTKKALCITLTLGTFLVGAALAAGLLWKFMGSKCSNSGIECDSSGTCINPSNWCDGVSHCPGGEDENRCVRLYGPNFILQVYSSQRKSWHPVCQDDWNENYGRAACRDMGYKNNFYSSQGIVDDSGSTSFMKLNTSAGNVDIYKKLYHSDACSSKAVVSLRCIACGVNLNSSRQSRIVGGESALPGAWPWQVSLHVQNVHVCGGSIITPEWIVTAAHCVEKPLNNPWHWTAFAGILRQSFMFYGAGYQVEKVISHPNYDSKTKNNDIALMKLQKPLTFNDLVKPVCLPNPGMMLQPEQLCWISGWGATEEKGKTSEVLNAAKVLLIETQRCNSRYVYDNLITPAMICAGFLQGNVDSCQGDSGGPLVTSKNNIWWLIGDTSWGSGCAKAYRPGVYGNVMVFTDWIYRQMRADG

| Binder | APC median at 3 µg/ml [1] | Kd [2] | koff [2] | kon [2] |
| --- | --- | --- | --- | --- |
| 2228_15 human IgG4 chimeric antibody (antibody, V domains shown) VH: QVQLQQSGPELVKPGTSVKISCKASGYTFTDYYINWVKQRPGQGLEWIGWIFPGSGSSYYNAIFKGKATLTVDTSSNTAHMSLSSLTSDDSAVYFCARGDFGNFGGFFTYWGQGTLVTVSA VL: DVVVTQSPASLAVSLGQRATISCRASKSVSTSGYSFMHWYQQKPGQPPKLLIYLASNLESGVPARFSGSGSGTDFILNIHPVEEEDAATYYCQHSRELPLTFGAGTKLELK | 2370 | – | – | – |
| humanized 752-1 IgG4 (S108P) prototype #1 (antibody, V domains shown, also called humanized #1; hu #1) VH: QVQLVQSGAEVKKPGASVKVSCKASGYTFTSCGISWVRQAPGQGLEWMGEIYPRGGNTYYNEKFKGRVTMTTDTSTSTAYMELRSLRSDDTAVYYCARENGNYDPLFAYWGQGTLVTVSS VL: DIQMTQSPSSLSASVGDRVTITCKASQDINKYIAWYQQKPGKAPKLLIYYTSTLQPGVPSRFSGSGSGTDFTFTISSLQPEDIATYYCLQYYNLWTFGGGTKVEIK | 1450 | 22.6 nM | 0.00932 s⁻¹ | 412000 M⁻¹ s⁻¹ |
| humanized 752-1 IgG4 (S108P) prototype #3 (antibody, V domains shown, also called humanized #3; hu #3) VH: QVQLQQSGTGLARPGASVKLSCKASGYTFTSCGISWVTQRAGQGLEWIGEIYPRGGNTYYNEKFKGKATLTADKSSSSAYMELRGLTAEDSAVYFCARENGNYDPLFAYWGQGTTLTVSS VL: DIQMTQSPSSLSASVGDRVTITCKASQDINKYIAWYQQKPGKAPKLLIYYTSTLQPGVPSRFSGSGSGTDFTFTISSLQPEDIATYYCLQYYNLWTFGGGTKVEIK | 1560 | 2.11 nM | 0.00469 s⁻¹ | 2.22e+06 M⁻¹ s⁻¹ |
| humanized 752-1 IgG4 (S108P) prototype #2 (antibody, V domains shown, also called humanized #2; hu #2) VH: QVQLVQSGAEVKKPGASVKVSCKASGYTFTSCGISWVRQAPGQGLEWMGEIYPRGGNTYYNEKFKGRVTMTTDTSTSTAYMELRSLRSDDTAVYYCARENGNYDPLFAYWGQGTLVTVSS VL: DIQMTQSPSSLSASVGDRVTITCKASQDINKYIAWYQQKPGKAPKLLIHYTSTLQPGVPSRFSGSGSGTDFTFTISSLQPEDIATYYCLQYYNLWTFGGGTKVEIK | 1410 | 13.4 nM | 0.0152 s⁻¹ | 1.13e+06 M⁻¹ s⁻¹ |
| humanized 752-1 IgG4 (S108P) prototype #4 (antibody, V domains shown, also called humanized #4; hu #4) VH: QVQLQQSGTGLARPGASVKLSCKASGYTFTSCGISWVTQRAGQGLEWIGEIYPRGGNTYYNEKFKGKATLTADKSSSSAYMELRGLTAEDSAVYFCARENGNYDPLFAYWGQGTTLTVSS VL: DIQMTQSPSSLSASVGDRVTITCKASQDINKYIAWYQQKPGKAPKLLIHYTSTLQPGVPSRFSGSGSGTDFTFTISSLQPEDIATYYCLQYYNLWTFGGGTKVEIK | 1650 | 2.44 nM | 0.00611 s⁻¹ | 2.5e+06 M⁻¹ s⁻¹ |
| humanized 2228-15 IgG4 (S108P) prototype #1 (antibody, V domains shown, also called humanized #1; hu #1) VH: QVQLVQSGAEVKKPGASVKVSCKASGYTFTDYYINWVRQAPGQGLEWMGWIFPGSGSSYYNAIFKGRVTMTRDTSISTAYMELSRLRSDDTAVYYCARGDFGNFGGFFTYWGQGTLVTVSS VL: DVVMTQSPLSLPVTLGQPASISCRASKSVSTSGYSFMHWFQQRPGQSPRRLIYLASNLESGVPDRFSGSGSGTDFTLKISRVEAEDVGVYYCQHSRELPLTFGGGTKVEIK | 579 | 12.3 nM | 0.0641 s⁻¹ | 5.22e+06 M⁻¹ s⁻¹ |
| humanized 2228-15 IgG4 (S108P) prototype #2 (antibody, V domains shown, also called hu #2) VH: QVQLVQSGAEVKKPGASVKVSCKASGYTFTDYYINWVRQAPGQGLEWMGWIFPGSGSSYYNAIFKGRVTMTRDTSISTAYMELSRLRSDDTAVYYCARGDFGNFGGFFTYWGQGTLVTVSS VL: DIVMTQSPDSLAVSLGERATINCRASKSVSTSGYSFMHWYQQKPGQPPKLLIYLASNLESGVPDRFSGSGSGTDFTLTIRPLQAEDVAVYYCQHSRELPLTFGQGTKLEIK | 2540 | – | – | – |
